In article PMC4729479:

Molecular target: hemagglutinin-esterase-fusion glycoprotein (HEF) of influenza D virus D/swine/Oklahoma/1334/2011, ectodomain (influenza D virus (D/swine/Oklahoma/1334/2011))
Assay: crystal structure

Substance: hemagglutinin-esterase-fusion glycoprotein (HEF) of influenza D virus D/swine/Oklahoma/1334/2011, ectodomain (domain or fragment)
- stoichiometry N: 3
